# Assay results reported in patent US20260242478A1 (published 2026).
# Where no end group is shown, it is not given here.
# B1: Phage-2187 (peptide)
# peptide: EIKWCTPAWMCEGF
# notes: tested as crude clonal phage supernatant
# B2: Phage-2190 (peptide)
# peptide: EHHWCIPKWMCNEV
# notes: as for B1
# B3: Phage-2189 (peptide)
# peptide: WYKWCTPAWMCEFT
# notes: as for B1
# B4: Phage-2186 (peptide)
# peptide: EFKWCIPAWMCTAA
# notes: as for B1
# B5: Phage-2185 (peptide)
# peptide: WSKSCTPAWMCEGF
# notes: as for B1
# B6: Phage-2191 (peptide)
# peptide: VDNWCVPRWMCDGF
# notes: as for B1
# B7: Phage-2184 (peptide)
# peptide: TEKWCIPEWMCAHQ
# modifications: cysteine pairing not given here; also: displayed on bacteriophage as fusion to pIII
# notes: as for B1
# B8: Phage-2188 (peptide)
# peptide: LSHWCSPQWMCSGF
# notes: as for B1
# B9: Phage-2288 (peptide)
# peptide: HVKWCTPAWMCVSN
# notes: as for B1
# B10: Phage-2287 (peptide)
# peptide: VEKWCTPRWMCEGF
# notes: as for B1
# B11: Phage-2283 (peptide)
# peptide: GGKWCKPSWMCFGM
# notes: as for B1
# B12: Phage-2285 (peptide)
# peptide: EPKWCIPQWMCERF
# notes: as for B1
# B13: Phage-2284 (peptide)
# peptide: MINWCTPAWMCTGF
# notes: as for B1
# B14: Phage-2286 (peptide)
# peptide: AEKWCIPPWMCVND
# notes: as for B1
# B15: Phage-2289 (peptide)
# peptide: ELNWCTPPWMCNPM
# notes: as for B1
# Target: T1, Anti-PSMA Fab (SEQ ID NOs: 19, 20)
# T1 construct: also called 006 PSMA Fab
# Assay: phage binding ELISA; biotinylated PSMA Fab on neutravidin plate, clonal phage supernatant, anti-M13 HRP detection;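 note: wells were preincubated with blocking buffer either containing PSMA antigen or without it before crude phage supernatant was added, briefly incubated, then washed prior to detection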
# Method: (§1) Clonal phage were harvested as crude supernatants and screened via standard ELISAs. […] Prior to the addition of clonal phage. wells were incubated with blocking buffer and PSMA antigen or blocking buffer alone. Without washing or aspirating, clonal phage supernatants were then added to the wells and incubated for a short time. Wells were then washed followed by detection of bound phage using a horse radish conjugated anti-M13 antibody.
row,Binder,"Anti-PSMA Fab (SEQ ID NOs: 19, 20) signal"
1,"MEMWCRPAWMCAHS (cysteine pairing not given here; also: displayed on phage, fused to pIII) [Phage-2257]",1.54
2,EMHWCIPAWMCPDG [Phage-2266],1.54
3,GDRWCIPEWMCGVI [Phage-2265],1.54
4,ALKWCIPDWMCSQP [Phage-2264],1.54
5,PVNWCKPPWMCEMW [Phage-2256],1.54
6,NERWCIPSWMCQEA [Phage-2253],1.55
7,TEKWCIPAWMCQVS [Phage-2261],1.54
8,VDRWCIPEWMCNEL [Phage-2260],1.54
9,YSHLCIPSWMCSWT [Phage-2263],1.54
10,PNIWCTPLWMCEGL [Phage-2262],1.54
11,VELLCKPPWMCSGL [Phage-2255],1.54
12,DMRWCIPAWMCEDR [Phage-2259],1.54
13,ITKLCTPPWMCTMV [Phage-2267],1.53
14,"MMKWCTPEWMCAMV (cysteine pairing not given here; also: displayed on phage, fused to pIII) [Phage-2258]",1.54
15,PAKWCIPMWMCQVD [Phage-2254],1.55

# Target: T2, Anti-PSMA Fab (SEQ ID NOs: 19, 20)
# T2 construct: Biotinylated and captured on neutravidin coated plates in the phage ELISA; also called 006 PSMA Fab
# Assay: phage binding ELISA; biotinylated PSMA Fab on neutravidin plate, clonal phage detected with anti-M13-HRP
# Method: as §1
row,Binder,"Anti-PSMA Fab (SEQ ID NOs: 19, 20) signal"
1,B1,1.63
2,B2,1.63
3,B3,1.63
4,B4,1.63
5,B5,1.63
6,B6,1.63
7,B7,1.63
8,B8,1.63

# Target: T3, Anti-PSMA Fab (SEQ ID NOs: 19, 20)
# T3 construct: Biotinylated and captured on neutravidin coated plates in the phage ELISA; also called 006 PSMA Fab
# Assay: phage binding ELISA; biotinylated Fab on neutravidin plate, clonal phage detected with anti-M13 HRP
# Method: as §1
row,Binder,"Anti-PSMA Fab (SEQ ID NOs: 19, 20) signal"
1,YTNWCIPSWMCEGF [Phage-2274],1.52
2,AVKLCTPMWMCMGF [Phage-2282],1.51
3,IEKWCIPQWMCSAA [Phage-2278],1.52
4,LEKWCTPPWMCMGF [Phage-2276],1.52
5,AENWCRPSWMCEGF [Phage-2268],1.53
6,HQNWCIPAWMCHGM [Phage-2271],1.53
7,VVKWCSPPWMCEYF [Phage-2270],1.53
8,WDMRCTPIWMCEGF [Phage-2272],1.52
9,GINWCIPPWMCQSE [Phage-2273],1.52
10,FAKWCTPQWMCSAM [Phage-2269],1.53
11,MPKWCIPTWMCEST [Phage-2281],1.51
12,FAILCKPMWMCEHI [Phage-2280],1.51
13,IIKWCKPLWMCESI [Phage-2277],1.52
14,IPRMCTPAWMCEWS [Phage-2279],1.51
15,GEKWCIPSWMCEIT [Phage-2275],1.52

# Target: T2, Anti-PSMA Fab (SEQ ID NOs: 19, 20)
# Assay: phage binding ELISA; Fab-coated wells pre-incubated with PSMA antigen as competitor, anti-M13-HRP detection;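 note: clonal phage supernatants screened, with reference wells given blocking buffer only (no PSMA antigen) before phage were added for a brief incubation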
# Method: as §1
row,Binder,Anti-PSMA Fab signal in the presence of PSMA
1,B1,0.0762
2,B2,0.0711
3,B3,0.145
4,B4,0.0998
5,B5,0.0843
6,B6,0.0922
7,B7,0.0839
8,B8,0.0932

# Target: T3, Anti-PSMA Fab (SEQ ID NOs: 19, 20)
# Assay: phage binding ELISA; Fab-coated wells pre-incubated with PSMA antigen as competitor
# Method: as §1
row,Binder,Anti-PSMA Fab signal in the presence of PSMA
1,YTNWCIPSWMCEGF [Phage-2274],0.0789
2,AVKLCTPMWMCMGF [Phage-2282],0.0984
3,IEKWCIPQWMCSAA [Phage-2278],0.0739
4,LEKWCTPPWMCMGF [Phage-2276],0.0948
5,AENWCRPSWMCEGF [Phage-2268],0.0717
6,HQNWCIPAWMCHGM [Phage-2271],0.0592
7,VVKWCSPPWMCEYF [Phage-2270],0.0886
8,WDMRCTPIWMCEGF [Phage-2272],0.0882
9,GINWCIPPWMCQSE [Phage-2273],0.119
10,FAKWCTPQWMCSAM [Phage-2269],0.225
11,MPKWCIPTWMCEST [Phage-2281],0.054
12,FAILCKPMWMCEHI [Phage-2280],0.0895
13,IIKWCKPLWMCESI [Phage-2277],0.104
14,IPRMCTPAWMCEWS [Phage-2279],0.0738
15,GEKWCIPSWMCEIT [Phage-2275],0.0796

# Target: T4, Anti-PSMA Fab (SEQ ID NOs: 19, 20)
# T4 construct: Biotinylated and captured on neutravidin coated plates in the phage ELISA; also called 006 PSMA Fab
# Assay: phage binding ELISA; plate-captured PSMA Fab pre-incubated with PSMA antigen as competitor, anti-M13 HRP detection
# Method: as §1
row,Binder,Anti-PSMA Fab signal in the presence of PSMA
1,B9,0.079
2,B10,0.0841
3,B11,0.108
4,B12,0.0654
5,B13,0.101
6,B14,0.0683
7,B15,0.0786

# Target: T1, Anti-PSMA Fab (SEQ ID NOs: 19, 20)
# Assay: phage binding ELISA; PSMA Fab on plate pre-incubated with PSMA antigen as competitor, anti-M13 HRP detection;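 note: crude clonal phage supernatants added without washing to wells preincubated with PSMA in blocking buffer, compared with wells receiving blocking buffer only, then bound phage detected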
# Method: as §1
row,Binder,Anti-PSMA Fab signal in the presence of PSMA
1,"MEMWCRPAWMCAHS (cysteine pairing not given here; also: displayed on phage, fused to pIII) [Phage-2257]",0.0767
2,EMHWCIPAWMCPDG [Phage-2266],0.0572
3,GDRWCIPEWMCGVI [Phage-2265],0.0664
4,ALKWCIPDWMCSQP [Phage-2264],0.0749
5,PVNWCKPPWMCEMW [Phage-2256],0.087
6,NERWCIPSWMCQEA [Phage-2253],0.0574
7,TEKWCIPAWMCQVS [Phage-2261],0.0738
8,VDRWCIPEWMCNEL [Phage-2260],0.084
9,YSHLCIPSWMCSWT [Phage-2263],0.111
10,PNIWCTPLWMCEGL [Phage-2262],0.0772
11,VELLCKPPWMCSGL [Phage-2255],0.0931
12,DMRWCIPAWMCEDR [Phage-2259],0.0623
13,ITKLCTPPWMCTMV [Phage-2267],0.0558
14,"MMKWCTPEWMCAMV (cysteine pairing not given here; also: displayed on phage, fused to pIII) [Phage-2258]",0.0753
15,PAKWCIPMWMCQVD [Phage-2254],0.0779

# Target: T4, Anti-PSMA Fab (SEQ ID NOs: 19, 20)
# Assay: phage binding ELISA; clonal phage on plate-captured biotinylated PSMA Fab, anti-M13 HRP detection
# Method: as §1
row,Binder,"Anti-PSMA Fab (SEQ ID NOs: 19, 20) signal"
1,B9,1.51
2,B10,1.51
3,B11,1.51
4,B12,1.51
5,B13,1.51
6,B14,1.51
7,B15,1.5
